In patent US11360100B2, “Methods and compositions useful in detecting proteins” (OREGON HEALTH & SCIENCE UNIVERSITY, priority 2016, dated 2022):
“Also recorded” adds a separate entry of the source. AF647 = AlexaFluor 647; Cy5 = Cy5 cyanine dye

Experiments:
CoilY-mCherry [1] = assay: SDS-PAGE/PVDF membrane labeling of transfected HEK293FT lysates, CoilY-mCherry; type: binding; conditions: cell lysates, SDS-PAGE, PVDF membrane
Procedure: The CoilY and CoilZ pair could be used to label two protein targets simultaneously. Transfected HEK293FT cell lysates from cells expressing mCherry, CoilY-mCherry, EGFP, or CoilZ-EGFP were resolved by SDS-PAGE and transferred to a PVDF membrane. The membrane was incubated sequentially with CoilZ-fluorescein and CoilY-rhodamine before imaging. GFP and mCherry fluorescence was not preserved due to SDS-PAGE protein denaturation.
(§1) A protein gel-based assay was optimized for analyzing VIP tags in vitro. Cell lysates were made from cells transfected with mCherry, CoilY-mCherry, GFP, or CoilZ-GFP, resolved by SDS-PAGE, and transferred to a membrane. GFP and mCherry fluorescence were not preserved in this experiment. The membrane was then contacted with CoilZ-fluorescein and CoilY-rhodamine before imaging. […] The probe peptides were specific for each tagged protein, and this single pair enabled specific and selective protein tagging of two distinct targets. In addition both the VIP E/R and VIP Y/Z tag sets could be used concurrently to label two recombinant proteins (DHFR and mCherry) without crosstalk (FIG. 23).

[2] = system: untagged mCherry and DHFR; assay: SDS-PAGE/PVDF membrane labeling, untagged proteins; type: binding; conditions: lysates and purified proteins, PVDF membrane
Procedure: Crude lysates (lys.) and purified proteins (serial dilutions) were resolved by SDS-PAGE. Lysates were prepared from HERK 293FT cells transfected with mCherry, CoilY-mCherry, DHFR, and CoilE-DHFR. The protein gel was transferred to a PVDF membrane and then incubated with CoilZ-Fluorescein and CoilR-rhodamine. After washing, the membrane was imaged to detect VIPER labeling of DHFR (red) and VIP Y/Z labeling of mCherry (green). Untagged proteins were not labeled by either CoilR-rhodamine or CoilZ-fluorescein.
as §1

His6-CoilY-mCherry = assay: Detection limit comparison on PVDF membrane (peptide vs immunolabeling); type: binding; conditions: serial dilutions 400 ng to 0.8 ng
Procedure: FIG. 10 is a detection limit comparison between peptide and immunolabeling. Serial dilutions of CoilY-mCherry (400 ng to 0.8 ng) were run on two identical SDS-PAGE gels before transfer to a PVDF membrane. The first membrane (top) was treated with CoilZ-fluorescein (CoilZ-FL) and imaged (ex 475/42 nm; em 537/35 nm). The second membrane (bottom) was labeled using an AF488-conjugated anti-His antibody “AF488-His” (QIAGEN, product number 35310) and imaged (475/42 nm excitation, 537/35 nm emission).
The disclosed method is a sensitive alternative to fluorescent immunoblotting. Purified His6-CoilY-mCherry was generated and the sensitivity of detection of the His6-CoilY-mCherry using our CoilZ-fluorescein was compared to that of an AF488-labeled anti-His antibody from Qiagen. CoilZ-fluorescein could detect as little as 3 ng of His6-CoilY-mCherry, while the antibody required 8-fold more target protein (FIG. 10).
Specifically, purified His6-mCherry and His6-CoilY-mCherry were loaded on a 10% SDS-PAGE gel for separation. Electrophoresis occurred at 165 V for 1 h. […]
Decreasing quantities of purified CoilY-mCherry (400 ng to 0.8 ng) were resolved by SDS-PAGE and transferred to a PVDF membrane. […] CoilY-mCherry was detected by blotting with anti-pentahistidine mouse antibody conjugated to AlexaFluor488 (1:5000, QIAGEN; product number 35310). […]

CoilZ-EGFP-TM = assay: Flow cytometry of probe labeling, live U-2 OS cells expressing CoilZ-EGFP-TM; type: cell-based, human
Excerpt: (§2) Cells were gated for green fluorescence and analyzed for labeling with CoilY-AF647 (A) or CoilZ-AF647 (B). Transfected cells expressed CoilZ-EGFP-TM (green), CoilY-EGFP-TM (blue), or untagged EGFP-TM (gray). Values in bold indicate the median AF647 fluorescence for each cell population.
FIGS. 25A and 25B provide flow analysis of cells treated with CoilY-AF647. In FIG. 25A U-2 OS cells were transfected with EGFP-TM or CoilZ-EGFP-TM and treated with increasing concentrations of CoilY-AF647. Single, live, green fluorescent cells expressing untagged (left) or tagged (right) EGFP-TM were counted and analyzed for labeling without probe peptide (0 nM) or with CoilY-AF647 (50, 100, 300, 500, 750, or 1000 nM). Values within each histogram indicate the median AF647 fluorescence for each cell population. Data analyzed included between 26,000 and 35,000 live, singlet GFP+ cells.
The in vitro results were translated to living cells. Flow cytometry was used to evaluate protein labeling in live human osteosarcoma (U-2 OS) cells expressing CoilZ-EGFP-TM, CoilY-EGFP-TM, or untagged EGFP-TM (FIG. 11). […]
Protein labeling was assessed as a function of CoilY-AF647 concentration (FIG. 25). […] Cells had 21- to 44-fold higher median fluorescence compared to cells expressing untagged protein. Treatment with 300 nM AF647-CoilY gave optimal labeling, with 98% of cells labeled and a 35-fold increase in AF647 fluorescence. […]

CoilY-EGFP-TM = assay: Flow cytometry of probe labeling, live U-2 OS cells expressing CoilY-EGFP-TM; type: cell-based, human; conditions: 500 nM probe
Excerpt: as §2
(§3) The in vitro results were translated to living cells. Flow cytometry was used to evaluate protein labeling in live human osteosarcoma (U-2 OS) cells expressing CoilZ-EGFP-TM, CoilY-EGFP-TM, or untagged EGFP-TM (FIG. 11). Cells were treated with 500 nM AF647-conjugated probe peptide before analysis, and we gated for EGFP-expressing cells. […] Non-specific labeling of untagged EGFP-TM and homodimerization with CoilY-EGFP-TM were minimal for cells exposed to CoilY-AF647. Cells expressing CoilY-EGFP-TM were labeled with CoilZ-AF647, but with only a 4-fold enhancement.

untagged EGFP-TM = assay: Flow cytometry of probe labeling, live U-2 OS cells expressing untagged EGFP-TM; type: cell-based, human; conditions: 500 nM probe
Procedure: as §3
Protein labeling was assessed as a function of CoilY-AF647 concentration (FIG. 25). Live cells expressing CoilZ-EGFP-TM or untagged EGFP-TM were treated with a range of CoilY-AF647 concentrations (50 nM to 1000 nM for 30 min at room temperature). […] Cells had 21- to 44-fold higher median fluorescence compared to cells expressing untagged protein. Treatment with 300 nM AF647-CoilY gave optimal labeling, with 98% of cells labeled and a 35-fold increase in AF647 fluorescence. Treatment with an excess of probe peptide (i.e., 1000 nM) enhanced the AF647 signal, but at the cost of a small increase in non-specific labeling.

CoilZ-EGFP = assay: Fluorescence microscopy labeling of cell-surface CoilZ-GFP (CoilZ-EGFP); type: cell-based, human
Procedure: (§4) Fluorescence microscopy was used to confirm that the VIP Y/Z tag set enabled selective fluorescent labeling of proteins (FIGS. 3A and 3B). CoilZ was expressed by fusion to a cell-surface localized variant of GFP (CoilZ-GFP; pDisplay vector). […] Labeling was rapid (<30 min), target-specific, and live-cell compatible. Homodimerization between a CoilZ probe peptide and CoilZ-GFP was not observed. Cells expressing untagged GFP were not labeled with the CoilY probe peptide. CoilY was also expressed fused to the cell surface localized GFP and visualized using a CoilZ-AF647 probe peptide (FIG. 3B). No homodimerization of CoilY was observed, and the labeling was specific.
(§5) It was next confirmed that the VIP Y/Z tag set could be used in two-target imaging in fixed cells (FIGS. 5B and 13). A combination of cell lines singly-transfected with mCherry, GFP, CoilY-mCherry, or CoilZ-GFP was used, as illustrated in FIG. 9. […] Then we labeled two tagged FPs in one sample using a mixed population of cells expressing either CoilY-mCherry or CoilZ-GFP.
(§6) The disclosed methods were tested in transfected human osteosarcoma cells (U-2 OS). A pDisplay vector was used to target CoilZ-EGFP and untagged EGFP to the cell surface. This construct includes a C-terminal fusion to the transmembrane domain of the platelet derived growth factor receptor. As expected, both CoilZ-EGFP and untagged EGFP localized to the cell surface, and green fluorescence was observed within 24 h of transfection. Then the cells were blocked with 6% BSA and 10% FBS for 30 minutes at 37° C. and then contacted with an AF647-conjugated CoilY probe (CoilY-AF647), 30 min at 4° C. Cells were fixed before imaging by confocal fluorescence microscopy. The probe peptides are membrane impermeant; only cell-surface EGFP was accessible to CoilY-AF647 for labeling. Colocalization of green fluorescent CoilZ-EGFP with CoilY-AF647 was observed.
(§7) The CoilY/CoilZ tag set is also compatible with live-cell imaging. CoilZ-EGFP was contacted with CoilY-AF647 in live U2OS cells. […] Homodimerization was not observed for CoilY-EGFP incubated with CoilY-AF647. Non-specific labeling of untagged GFP was not observed (FIG. 26). Cells internalize labeled targets over time. CoilZ-GFP and CoilY-AF647 co-localization was observed on the surface and in endocytic vesicles due to rapid internalization, and AF647 signal accumulated inside cells during a 40 min. long incubation at room temperature (FIG. 12).
The VIPY/Z tag set can be used to label multiple protein targets simultaneously. Cells expressing CoilY-mCherry were combined with those expressing CoilZ-EGFP-pDisplay (FIG. 9). This mixed cell population, as well as unmixed CoilZ-GFP, CoilY-mCherry, and untagged controls, were plated for imaging. […] Fluorescence was detected by confocal fluorescence imaging. […]

CoilY-EGFP = assay: Fluorescence microscopy labeling of cell-surface CoilY-GFP (CoilY-EGFP); type: cell-based, human; conditions: fluorescence microscopy
Procedure: as §4
The CoilY/CoilZ tag set is bidirectional—either CoilZ or CoilY can serve as the probe peptide. CoilY-EGFP was expressed on the surface of U2OS cells and labeled with CoilZ-AF647. Protein labeling was rapid (<30 min) and specific; non-specific labeling of untagged EGFP was not observed. Homodimerization was not observed for either CoilZ-AF647 with CoilZ-EGFP or CoilY-AF647 with CoilY-EGFP (FIG. 3B).
as §7

[3] = system: untagged GFP/EGFP and mCherry; assay: Fluorescence microscopy, cells expressing untagged fluorescent proteins; type: cell-based, human
Procedure: as §4, §5, §6
The CoilY/CoilZ tag set is bidirectional—either CoilZ or CoilY can serve as the probe peptide. CoilY-EGFP was expressed on the surface of U2OS cells and labeled with CoilZ-AF647. […]

CoilY-mCherry [4] = assay: Two-target fluorescence imaging, cells expressing CoilY-mCherry; type: cell-based; conditions: fluorescence microscopy
Excerpt: as §5
The VIPY/Z tag set can be used to label multiple protein targets simultaneously. Cells expressing CoilY-mCherry were combined with those expressing CoilZ-EGFP-pDisplay (FIG. 9). This mixed cell population, as well as unmixed CoilZ-GFP, CoilY-mCherry, and untagged controls, were plated for imaging. After blocking for 30 minutes at 37° C. with 6% BSA, 10% FBS, cells were treated at 4° C. with 500 nM CoilZ-biotin for 15 min and then 500 nM CoilY-AF647 for 15 min. […] Cells were then fixed, blocked for 1 hour with 6% BSA, 10% FBS and treated with Qdot565-conjugated streptavidin in order to label CoilZ-biotin. Fluorescence was detected by confocal fluorescence imaging. […] So the CoilY/Z tag set can be used to image up to four proteins at once.

[5] = system: untagged mEmerald constructs; assay: VIPER labeling of fixed, permeabilized U-2 OS cells, untagged constructs; type: cell-based; conditions: 100 nM probe, same acquisition settings
Procedure: The CoilE and CoilR peptides were assessed for their ability to label intracellular structures without perturbing normal trafficking and distribution of the tagged proteins. U-2 OS cells were transfected with mEmerald-actin-C18, mEmerald-CoilE-actin-C18, H2B-6-mEmerald, H2B-6-CoilE-mEmerald, Mito-7-mEmerald, and Mito-7-CoilE-mEmerald and fixed with 4% PFA 24 hours after transfection. Cells were then lightly permeabilized and then labeled with 100 nM CoilR-Cy5 in a blocking buffer. Cells were fixed and imaged using with line-scanning confocal microscope. […] VIPER labeling was specific, given by the colocalization of features between the VIPER(Cy5) and mEmerald signal.

untagged TfR1 = target: T1, untagged TfR1 (Homo sapiens, UniProt P02786); assay: CoilR probe labeling of CHO TRVb cells expressing untagged TfR1; type: cell-based; conditions: labeled at 4° C.
T1 construct: expressed in transfected cells; host or cells: CHO TRVb
T1 sequence (P02786 whole entry): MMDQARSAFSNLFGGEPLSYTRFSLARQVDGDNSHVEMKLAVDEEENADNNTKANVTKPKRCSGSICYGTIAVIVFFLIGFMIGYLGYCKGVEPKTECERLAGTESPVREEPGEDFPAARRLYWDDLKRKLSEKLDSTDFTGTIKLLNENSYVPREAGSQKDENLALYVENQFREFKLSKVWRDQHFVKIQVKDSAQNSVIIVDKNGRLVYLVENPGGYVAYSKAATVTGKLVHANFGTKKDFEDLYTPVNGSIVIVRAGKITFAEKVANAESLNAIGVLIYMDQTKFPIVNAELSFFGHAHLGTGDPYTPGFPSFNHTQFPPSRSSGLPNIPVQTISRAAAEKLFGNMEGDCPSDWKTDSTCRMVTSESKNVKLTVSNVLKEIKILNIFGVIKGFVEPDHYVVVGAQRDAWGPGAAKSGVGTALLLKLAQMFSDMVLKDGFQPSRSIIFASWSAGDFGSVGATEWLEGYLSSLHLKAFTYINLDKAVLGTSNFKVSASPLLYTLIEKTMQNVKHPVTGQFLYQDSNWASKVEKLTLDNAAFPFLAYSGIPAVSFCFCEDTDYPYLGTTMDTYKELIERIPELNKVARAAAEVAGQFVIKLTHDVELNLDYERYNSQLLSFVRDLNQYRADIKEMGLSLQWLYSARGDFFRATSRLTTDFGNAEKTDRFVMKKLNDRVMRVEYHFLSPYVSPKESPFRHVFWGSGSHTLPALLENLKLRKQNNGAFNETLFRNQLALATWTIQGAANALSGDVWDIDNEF

B1: CoilZ-fluorescein: green fluorescent CoilZ probe peptide, maleimide conjugate (conjugate)
peptide: MGSSQKVAQLKNRVAYKLKENAKLENIVARLENDNANLEKDIANLEKDIANLERDVARGGGAAACLGKLAAALEHHHHHH
probe peptide binding to CoilY-mCherry on membrane (CoilY-mCherry [1]): specific coiled-coil heterodimer formation could be detected; also recorded: Probe peptide binding was detected
labeling of untagged proteins on membrane [2]: not labeled
least amount of His6-CoilY-mCherry detected (His6-CoilY-mCherry): 3 ng

B2: CoilY-AF647: CoilY probe peptide conjugated to AlexaFluor 647 (conjugate)
peptide: MGSSNTVKELKNYIQELEERNAELKNLKEHLKFAKAELEFELAAHKFEGGGAAAC(AF647)LGKLAAALEHHHHHH
modifications: not fully specified
cells labeled (CoilZ-EGFP-TM; 300 nM probe): 98%
enhancement of protein labeling (AF647 fluorescence) (CoilZ-EGFP-TM; 500 nM probe, live U-2 OS, gated for EGFP): greater than 40 fold
homodimerization with CoilY-EGFP-TM (CoilY-EGFP-TM): minimal
non-specific labeling of untagged EGFP-TM (untagged EGFP-TM): minimal
labeling time (rapid) (CoilZ-EGFP; cell-surface CoilZ-GFP/EGFP, live-cell compatible): < 30 min
labeling of CoilZ-GFP/EGFP (specificity, colocalization) (CoilZ-EGFP; fluorescence microscopy): target-specific; also recorded: labeled; also recorded: Colocalization; also recorded: specifically label
homodimerization of CoilY probe with CoilY-GFP/EGFP (CoilY-EGFP): not observed
non-specific labeling of untagged fluorescent proteins [3]: did not interact; also recorded: No CoilY-AF647 labeling was detected; also recorded: not observed
homodimerization / cross-reactivity of CoilY probe with CoilY-mCherry (CoilY-mCherry [4]): not observed; also recorded: no cross-reactivity

B3: CoilR-Cy5: CoilR probe peptide conjugated to Cy5 (conjugate)
peptide: MGGSLEIRAAFLRQRNTALRTEVAELEQEVQRLENEVSQYETRYGPLGGGAAALGC(Cy5)LAAALEHHHHHH
Cy5 signal in cells expressing untagged mEmerald constructs [5]: no significant Cy5 signal
labeling of cells expressing untagged TfR1 (untagged TfR1): no CoilR-Cy5 signal; also recorded: showed now labeling
